Patent US20150299312A1 (TECHNISCHE UNIVERSIT T DRESDEN, published 2015)

T1: P-selectin glycoprotein ligand 1 (PSGL-1) with the O-bound glycan structure 6-sulfo N-acetyl lactosamine … (human, UniProt Q14242 42-412)
T1 construct: whole, on cells; also called slan
T1 sequence (looked up): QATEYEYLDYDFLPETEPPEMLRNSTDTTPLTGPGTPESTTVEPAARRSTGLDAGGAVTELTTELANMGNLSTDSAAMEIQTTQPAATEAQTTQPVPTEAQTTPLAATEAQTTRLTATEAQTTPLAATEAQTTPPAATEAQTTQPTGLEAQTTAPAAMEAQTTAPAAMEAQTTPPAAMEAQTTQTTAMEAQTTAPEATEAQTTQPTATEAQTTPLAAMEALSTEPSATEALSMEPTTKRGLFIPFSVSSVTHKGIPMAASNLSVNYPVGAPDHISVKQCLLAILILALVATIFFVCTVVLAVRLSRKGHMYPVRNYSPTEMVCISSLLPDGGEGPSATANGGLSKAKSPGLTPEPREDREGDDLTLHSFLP


Target: T1, P-selectin glycoprotein ligand 1 …
Test: affinity to slan-DCs; method not stated

| Kd [pM] | fold higher affinity than DD2 or M-DC8 [fold] | Binder |
| --- | --- | --- |
| 0.4 | ~25 | monoclonal IgM antibody MB4 (antibody, V domains shown, also called anti-slan antibody MB4) VH: EVKLQESGPGLVQPSQSLSITCTVSGFSLTTYGVHWIRQSPGKGLEWLGVIWSGGGTDFNVAFMSRLSINKDNSKSQIFFKMNSLQANDTAIYYCARRTTNDGNYAFAYWGQGTLVTVS VL: DIVMTQSPLSLPVSLGDQASISCRSSQNILHSDGSTYLEWYLQKPGQSPKLLIYKVSNRFSGVPDRFSGSGSGTDFTLKISRVEAEDLGVYYCFQGSHVPWTFGGGTKLEIKR |
| 0.4 | ~25 | monoclonal IgM antibody MB6 (antibody, V domains shown, also called anti-slan antibody MB6) VH: EVKLEQSGPGLVQLSQSLSITCTVSGFSLTTYGVHWIRQSPGKGLEWLGVIWSGGGTDFNVAFISRLSINKDNSKSQVFFKMNSLQANDTAIYYCARRTTNDGNYAFAYWGQGTLVTVS VL: DIVMTQSPLSLPVSLGDQASISCRSSQNILHSDGNTYLEWYLQKPGQSPKLLIYKVSNRFSGVPDRFSGSGSGTDFTLKISRVEAEDLGVYYCFQGSHVPWTFGGGTKLEIKR |
